Measured values from article PMC9251887.

Biological target: GFP-Joka2 (tomato (SlJoka2))
Assay: FRET or BRET; FRET-FLIM in N. benthamiana leaves; donor GFP-Joka2, acceptors RFP fusions; GFP lifetime measured in GFP-JOKA2 aggregates

RFP-XopL (natural protein)
reduction of the donor's fluorescence lifetime: 0.1 ns
